{"source": "paper PMC10133315", "about": "“Overcoming adaptive resistance to anti-VEGF therapy by targeting CD5L”", "binders": {"B1": {"name": "S76.T (structured_RNA)", "RNA": "AGGUUGCAGCGUUCGACAGGAGGCUCACAACAG", "modifications": "2'-fluoro pyrimidines"}}, "target": "T1, CD5L (AIM) (Homo sapiens, UniProt O43866 20-347)", "T1 sequence": "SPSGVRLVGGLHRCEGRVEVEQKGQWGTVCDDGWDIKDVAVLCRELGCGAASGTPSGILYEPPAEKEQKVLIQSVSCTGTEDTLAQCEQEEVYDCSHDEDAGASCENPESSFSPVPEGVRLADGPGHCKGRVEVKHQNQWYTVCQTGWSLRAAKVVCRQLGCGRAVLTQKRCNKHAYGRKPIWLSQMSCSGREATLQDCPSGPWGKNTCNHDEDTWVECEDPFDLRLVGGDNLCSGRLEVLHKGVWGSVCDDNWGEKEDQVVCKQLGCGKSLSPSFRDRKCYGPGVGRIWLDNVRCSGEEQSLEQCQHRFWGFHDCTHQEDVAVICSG", "test": "MST; Cy5-S76.T 2 nM, CD5L titrated; MST: S11/S23 in binding buffer pH 7.4, 1 mM MgCl2, 0.1% Tween 20, 1 nM labelled protein; S76 in TBS; S76.T (Cy5, 2 nM) in 50 mM Tris-HCl pH 7.8, 150 mM NaCl, 0.05% Tween 20; temperature not stated", "settings": "protein: commercial; tags: His-tag; label: Cy5; hairpin"}
{"binder": "B1", "values": [{"measurement": "Kd", "value": "10.1 ± 2.3", "unit": "nM"}]}
